The text below walks through data of patent US20170007716A1 (ONCOMATRYX BIOPHARMA S L, published 2017).

Experiment [1] has as its target T1, human FAP on HT1080 cells (HT1080-huFAP, stable transfectants) (human, UniProt Q12884 1-760).
T1 sequence: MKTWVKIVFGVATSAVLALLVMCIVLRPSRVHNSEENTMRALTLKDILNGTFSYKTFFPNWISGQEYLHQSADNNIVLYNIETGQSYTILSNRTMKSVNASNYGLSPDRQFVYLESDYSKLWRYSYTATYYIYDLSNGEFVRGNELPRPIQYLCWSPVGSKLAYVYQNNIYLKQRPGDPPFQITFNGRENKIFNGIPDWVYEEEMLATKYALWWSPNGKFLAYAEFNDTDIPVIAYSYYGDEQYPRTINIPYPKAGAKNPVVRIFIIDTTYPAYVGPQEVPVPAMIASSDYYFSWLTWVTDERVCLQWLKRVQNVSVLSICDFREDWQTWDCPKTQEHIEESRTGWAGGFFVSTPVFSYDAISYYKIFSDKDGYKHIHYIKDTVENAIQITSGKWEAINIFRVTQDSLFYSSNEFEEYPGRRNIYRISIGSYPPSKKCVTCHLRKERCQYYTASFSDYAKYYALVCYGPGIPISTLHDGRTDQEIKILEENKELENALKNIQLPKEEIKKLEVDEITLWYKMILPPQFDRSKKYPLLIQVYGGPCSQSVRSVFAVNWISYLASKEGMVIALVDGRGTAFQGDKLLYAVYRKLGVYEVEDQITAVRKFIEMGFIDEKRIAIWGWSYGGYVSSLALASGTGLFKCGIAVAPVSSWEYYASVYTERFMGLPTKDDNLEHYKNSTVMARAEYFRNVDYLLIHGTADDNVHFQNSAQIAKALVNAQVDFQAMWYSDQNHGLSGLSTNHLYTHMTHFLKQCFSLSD
Briefly: cell-based or functional assay.

Experiment [2] concerns the target T1, human FAP on HT1080 cells …. Briefly: cell-based or functional assay. This is another data set of the same source.
The target is the same in experiment [3]. Briefly: flow cytometry, HT1080-huFAP cells.
The target of experiment [4] is T2, recombinant human FAP (extracellular region aa 26-760; R&D systems) (human, UniProt Q12884 26-760).
T2 construct: also called rhFAP; recombinant FAP
T2 sequence: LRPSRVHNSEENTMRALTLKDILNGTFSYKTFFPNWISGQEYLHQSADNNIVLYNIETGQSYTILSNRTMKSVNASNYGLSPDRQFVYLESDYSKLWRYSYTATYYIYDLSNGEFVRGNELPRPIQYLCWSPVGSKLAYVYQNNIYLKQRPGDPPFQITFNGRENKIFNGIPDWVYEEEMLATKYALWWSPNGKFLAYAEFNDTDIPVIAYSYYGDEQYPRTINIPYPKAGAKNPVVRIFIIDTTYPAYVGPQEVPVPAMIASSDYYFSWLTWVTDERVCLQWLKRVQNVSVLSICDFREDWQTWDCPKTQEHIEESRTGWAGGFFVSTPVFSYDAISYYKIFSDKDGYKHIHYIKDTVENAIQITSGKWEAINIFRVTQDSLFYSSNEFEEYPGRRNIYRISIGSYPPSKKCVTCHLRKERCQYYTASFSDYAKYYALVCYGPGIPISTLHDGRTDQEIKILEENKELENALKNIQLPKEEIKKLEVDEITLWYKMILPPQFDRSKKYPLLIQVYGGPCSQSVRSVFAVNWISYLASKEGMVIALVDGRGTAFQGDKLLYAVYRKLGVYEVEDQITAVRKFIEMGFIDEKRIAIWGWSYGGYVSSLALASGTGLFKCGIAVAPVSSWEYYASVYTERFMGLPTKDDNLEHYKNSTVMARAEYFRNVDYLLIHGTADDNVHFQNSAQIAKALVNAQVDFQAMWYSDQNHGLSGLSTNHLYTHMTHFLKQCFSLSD
The experiment can be described thus: ELISA, rhFAP. In general terms: In an ELISA, binding on a coated surface is turned into a signal by an enzyme label.

In experiment [5] the target is T2, recombinant human FAP (extracellular …). Briefly: QCM (Attana A100), rhFAP; KD1.
In experiment [6] the target is T3, mouse FAP on HT1080 cells (HT1080-moFAP) (mouse, UniProt P97321 1-761).
T3 construct: Murine FAP on stably transfected HT1080 cells; also called murine FAP
T3 sequence: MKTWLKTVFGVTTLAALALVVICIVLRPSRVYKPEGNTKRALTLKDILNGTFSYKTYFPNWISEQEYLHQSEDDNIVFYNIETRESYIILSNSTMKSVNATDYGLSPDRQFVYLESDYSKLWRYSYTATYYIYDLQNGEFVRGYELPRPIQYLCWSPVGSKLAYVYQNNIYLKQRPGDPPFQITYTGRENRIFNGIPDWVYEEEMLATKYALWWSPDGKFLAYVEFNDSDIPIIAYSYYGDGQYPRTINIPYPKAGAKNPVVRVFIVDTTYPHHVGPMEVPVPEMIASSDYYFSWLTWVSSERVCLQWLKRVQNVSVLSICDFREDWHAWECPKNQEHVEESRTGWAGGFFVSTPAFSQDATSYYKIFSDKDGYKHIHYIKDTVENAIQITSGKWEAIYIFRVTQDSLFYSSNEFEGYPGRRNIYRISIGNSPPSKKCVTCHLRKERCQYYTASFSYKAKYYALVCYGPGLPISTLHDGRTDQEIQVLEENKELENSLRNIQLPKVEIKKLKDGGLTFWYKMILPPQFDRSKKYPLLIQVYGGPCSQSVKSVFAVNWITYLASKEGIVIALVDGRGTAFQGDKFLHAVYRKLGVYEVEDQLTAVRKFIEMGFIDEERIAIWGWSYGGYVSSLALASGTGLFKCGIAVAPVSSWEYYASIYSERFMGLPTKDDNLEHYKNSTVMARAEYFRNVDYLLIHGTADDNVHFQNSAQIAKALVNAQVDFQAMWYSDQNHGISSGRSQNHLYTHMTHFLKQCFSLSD
The experiment can be described thus: FACS, HT1080-moFAP cells. A general note: In flow cytometry, cells or beads pass a laser one at a time.

In experiment [7] the target is T1, human FAP on HT1080 cells …. Briefly: FACS, HT1080-huFAP cells.
Experiment [8] addresses T3, mouse FAP on HT1080 cells (HT1080-moFAP). The experiment can be described thus: flow cytometry, HT1080-moFAP cells.
For experiment [9], the target named is T2, recombinant human FAP (extracellular …). The experiment can be described thus: QCM (Attana A100), rhFAP; KD2.
For experiment [10] the target is unchanged. The experiment can be described thus: ELISA, recombinant FAP coated.

B1: Anti-FAP hu36-IgG1-recNgA immunotoxin conjugate HPS131-001-1 (antibody)
heavy: QVQLVQSGAEVKKPGASVKVSCKASGYTFTENIIHWVRQAPGQGLEWMGWFHPGSGSIKYNEKFKDRVTMTADTSTSTVYMELSSLRSEDTAVYYCARHGGTGRGAMDYWGQGTLVTVSSASTKGPSVFPLAPSSKSTSGGTAALGCLVKDYFPEPVTVSWNSGALTSGVHTFPAVLQSSGLYSLSSVVTVPSSSLGTQTYICNVNHKPSNTKVDKKVEPKSCDKTHTCPPCPAPPVAGPSVFLFPPKPKDTLMISRTPEVTCVVVDVSHEDPEVKFNWYVDGVEVHNAKTKPREEQYNSTYRVVSVLTVLHQDWLNGKEYKCKVSNKGLPSSIEKTISKAKGQPREPQVYTLPPSRDELTKNQVSLTCLVKGFYPSDIAVEWESNGQPENNYKTTPPVLDSDGSFFLYSKLTVDKSRWQQGNVFSCSVMHEALHNHYTQKSLSLSPGK
light: DIQMTQSPSSLSASVGDRVTITCRASKSVSTSAYSYMHWYQQKPGKAPKLLIYLASNLESGVPSRFSGSGSGTDFTLTISSLQPEDFATYYCQHSRELPYTFGQGTKLEIKRTVAAPSVFIFPPSDEQLKSGTASVVCLLNNFYPREAKVQWKVDNALQSGNSQESVTEQDSKDSTYSLSSTLTLSKADYEKHKVYACEVTHQGLSSPVTKSFNRGEC
chain: MIDYPSVSFNLDGAKSATYRDFLSNLRKTVATGTYEVNGLPVLRRESEVQVKSRFVLVPLTNYNGNTVTLAVDVTNLYVVAFSGNANSYFFKDATEVQKSNLFVGTKQNTLSFTGNYDNLETAANTRRESIELGPSPLDGAITSLYHGDSVARSLLVVIQMVSEAARFRYIEQEVRRSLQQATSFTPNALMLSMENNWSSMSLEIQQAGNNVSPFFGTVQLLNYDHTHRLVDNFEELYKITGIAILLFRCSSPSND
modifications: single cysteine in a hindered disulphide bond to the SMPT-derivatised antibody; derivatised with SMPT on amino groups; disulphide link to recNgA
Turning to B1, the “cytotoxicity on HT1080-FAP cells (cell viability), IC50” value in experiment [1] came out at 5000 nM.

B2: ADC-558 (HPS-157-039-005), anti-FAP hu36:TAM558 ADC (antibody, V domains shown)
VH: QVQLVQSGAEVKKPGASVKVSCKASGYTFTENIIHWVRQAPGQGLEWMGWFHPGSGSIKYNEKFKDRVTMTADTSTSTVYMELSSLRSEDTAVYYCARHGGTGRGAMDYWGQGTLVTVSS
VL: DIQMTQSPSSLSASVGDRVTITCRASKSVSTSAYSYMHWYQQKPGKAPKLLIYLASNLESGVPSRFSGSGSGTDFTLTISSLQPEDFATYYCQHSRELPYTFGQGTKLEIKR
modifications: cytolysin-linker TAM558 on cysteine residues (not site-specific); cytolysin-linker TAM558 (vcPABA linker in R4 with 3 ethylene glycol spacer) on cysteine residues (not site-specific), DAR 3.92 for the whole antibody
Regarding B2, in experiment [1], the “specificity ratio between FAP(+) and FAP(-) HT1080 cells (cytotoxic activity)” value came out at 500. Further, in [2], the “IC50 in Proliferation Arrest Assay (nM), HT1080-FAP” value amounted to 0.96 nM.

B3: humanized anti-FAP IgG1 hu36 (hu36-IgG1) (antibody, V domains shown)
VH: QVQLVQSGAEVKKPGASVKVSCKASGYTFTENIIHWVRQAPGQGLEWMGWFHPGSGSIKYNEKFKDRVTMTADTSTSTVYMELSSLRSEDTAVYYCARHGGTGRGAMDYWGQGTLVTVSS
VL: DIQMTQSPSSLSASVGDRVTITCRASKSVSTSAYSYMHWYQQKPGKAPKLLIYLASNLESGVPSRFSGSGSGTDFTLTISSLQPEDFATYYCQHSRELPYTFGQGTKLEIKR
notes: Full-length humanized IgG1/kappa, gamma1* = deficient for ADCC and CDC; made in CHO cells; also called anti-hu/moFAP hu36; naked anti-FAP hu36-IgG1
Broadly, the EC50 is the concentration at which the effect is half-maximal. For orientation: Kd means a measure of binding affinity in units of concentration. Take B3: the EC50 in [3] was 0.33 nM; in experiment [4] it was 3 nM; in [6] it was 0.2 nM; in experiment [7] it was 0.3 nM; in experiment [8], 0.25 nM; in [10] it was about 5 nM. Besides, the figures for the Kd in experiment [5] and in experiment [9] were 218 nM and 0.4 nM, respectively.
